Test results taken from PMC6613885.

biological target: GST-LC3A; assay: GST-pulldown, in vitro-translated 35S-labelled protein, autoradiography quantification; details: Means ± SD of 3 independent experiments; parent: est. 0.5; read off a plot

Row | response [% binding] | Substance
1 | 0.25 | Myc-tagged BECN1, full-length, in vitro translated (from UniProt Q14457) F97A; I100A; S90E; S93E; S96E
2 | 0.6 | Myc-tagged BECN1, full-length, in vitro translated (from UniProt Q14457) S90E; S93E; S96E
3 | 0.25 | Myc-tagged BECN1, full-length, in vitro translated (from UniProt Q14457) F97A; I100A

same assay, conditions: Means ± SD of 3 independent experiments; parent: est. 1.7; read off a plot

Row | response [% binding] | Substance
4 | 1.8 | Myc-tagged PIK3C3, full-length, in vitro translated (from UniProt Q8NEB9) F198A; I201A
5 | 1.2 | Myc-tagged PIK3C3, full-length, in vitro translated (from UniProt Q8NEB9) F250A; V253A
6 | 1 | Myc-tagged PIK3C3, full-length, in vitro translated (from UniProt Q8NEB9) F198A; I201A; F250A; V253A

same assay, conditions: Means ± SD of 3 independent experiments; parent: est. 2.6; read off a plot

Row | response [% binding] | Substance
7 | 1 | Myc-tagged ATG14, full-length, in vitro translated (from UniProt Q6ZNE5) F64A; F67A; W435A; L438A
8 | 2.3 | Myc-tagged ATG14, full-length, in vitro translated (from UniProt Q6ZNE5) F64A; F67A
9 | 1.2 | Myc-tagged ATG14, full-length, in vitro translated (from UniProt Q6ZNE5) W435A; L438A
